Source: publication doi:10.1101/2025.08.11.669663 (bioRxiv, 2025)

B2: catalase (CAT) (natural protein, human (endogenous in HeLa), UniProt P04040 1-527, looked up)
chain: MADSRDPASDQMQHWKEQRAAQKADVLTTGAGNPVGDKLNVITVGPRGPLLVQDVVFTDEMAHFDRERIPERVVHAKGAGAFGYFEVTHDITKYSKAKVFEHIGKKTPIAVRFSTVAGESGSADTVRDPRGFAVKFYTEDGNWDLVGNNTPIFFIRDPILFPSFIHSQKRNPQTHLKDPDMVWDFWSLRPESLHQVSFLFSDRGIPDGHRHMNGYGSHTFKLVNANGEAVYCKFHYKTDQGIKNLSVEDAARLSQEDPDYGIRDLFNAIATGKYPSWTFYIQVMTFNQAETFPFNPFDLTKVWPHKDYPLIPVGKLVLNRNPVNYFAEVEQIAFDPSNMPPGIEASPDKMLQGRLFAYPDTHRHRLGPNYLHIPVNCPYRARVANYQRDGPMCMQDNQGGAPNYYPNSFGAPEQQPSALEHSIQYSGEVRRFNTANDDNVTQVRAFYVNVLNEEQRKRLCENIAGHLKDAQIFIQKKAVKNFTEVHPDYGSHIQALLDKYNAEKPKNAIHTFVQSGSHLAAREKANL

Columns and labels:
[1] = molecular target: Cu/Zn superoxide dismutase (SOD1) (human (endogenous in HeLa), UniProt P00441 1-154); assay: co-IP
Cu/Zn superoxide dismutase (SOD1), sequence (P00441 whole entry): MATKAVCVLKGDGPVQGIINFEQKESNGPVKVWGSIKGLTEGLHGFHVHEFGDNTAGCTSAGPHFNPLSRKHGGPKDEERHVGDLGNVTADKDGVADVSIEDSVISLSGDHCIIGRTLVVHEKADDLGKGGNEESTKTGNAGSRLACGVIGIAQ

[2] = molecular target: B2; assay: co-IP

B1: PRIM2 (a DNA primase subunit) (natural protein, human (endogenous in HeLa), UniProt P49643 1-509, looked up)
chain: MEFSGRKWRKLRLAGDQRNASYPHCLQFYLQPPSENISLIEFENLAIDRVKLLKSVENLGVSYVKGTEQYQSKLESELRKLKFSYRENLEDEYEPRRRDHISHFILRLAYCQSEELRRWFIQQEMDLLRFRFSILPKDKIQDFLKDSQLQFEAISDEEKTLREQEIVASSPSLSGLKLGFESIYKIPFADALDLFRGRKVYLEDGFAYVPLKDIVAIILNEFRAKLSKALALTARSLPAVQSDERLQPLLNHLSHSYTGQDYSTQGNVGKISLDQIDLLSTKSFPPCMRQLHKALRENHHLRHGGRMQYGLFLKGIGLTLEQALQFWKQEFIKGKMDPDKFDKGYSYNIRHSFGKEGKRTDYTPFSCLKIILSNPPSQGDYHGCPFRHSDPELLKQKLQSYKISPGGISQILDLVKGTHYQVACQKYFEMIHNVDDCGFSLNHPNQFFCESQRILNGGKDIKKEPIQPETPQPKPSVQKTKDASSALASLNSSLEMDMEGLEDYFSEDS
co-precipitated amount after H2O2 treatment, percent of that without H2O2 [1]: 130% | co-precipitated amount after H2O2 treatment, percent of that without H2O2 [2]: 175%

B2
co-precipitated amount after H2O2 treatment, percent of control [1]: 170%

B3: POLD1 (a DNA polymerase subunit) (natural protein, human (endogenous in HeLa), UniProt P28340 1-1107, looked up)
chain: MDGKRRPGPGPGVPPKRARGGLWDDDDAPRPSQFEEDLALMEEMEAEHRLQEQEEEELQSVLEGVADGQVPPSAIDPRWLRPTPPALDPQTEPLIFQQLEIDHYVGPAQPVPGGPPPSRGSVPVLRAFGVTDEGFSVCCHIHGFAPYFYTPAPPGFGPEHMGDLQRELNLAISRDSRGGRELTGPAVLAVELCSRESMFGYHGHGPSPFLRITVALPRLVAPARRLLEQGIRVAGLGTPSFAPYEANVDFEIRFMVDTDIVGCNWLELPAGKYALRLKEKATQCQLEADVLWSDVVSHPPEGPWQRIAPLRVLSFDIECAGRKGIFPEPERDPVIQICSLGLRWGEPEPFLRLALTLRPCAPILGAKVQSYEKEEDLLQAWSTFIRIMDPDVITGYNIQNFDLPYLISRAQTLKVQTFPFLGRVAGLCSNIRDSSFQSKQTGRRDTKVVSMVGRVQMDMLQVLLREYKLRSYTLNAVSFHFLGEQKEDVQHSIITDLQNGNDQTRRRLAVYCLKDAYLPLRLLERLMVLVNAVEMARVTGVPLSYLLSRGQQVKVVSQLLRQAMHEGLLMPVVKSEGGEDYTGATVIEPLKGYYDVPIATLDFSSLYPSIMMAHNLCYTTLLRPGTAQKLGLTEDQFIRTPTGDEFVKTSVRKGLLPQILENLLSARKRAKAELAKETDPLRRQVLDGRQLALKVSANSVYGFTGAQVGKLPCLEISQSVTGFGRQMIEKTKQLVESKYTVENGYSTSAKVVYGDTDSVMCRFGVSSVAEAMALGREAADWVSGHFPSPIRLEFEKVYFPYLLISKKRYAGLLFSSRPDAHDRMDCKGLEAVRRDNCPLVANLVTASLRRLLIDRDPEGAVAHAQDVISDLLCNRIDISQLVITKELTRAASDYAGKQAHVELAERMRKRDPGSAPSLGDRVPYVIISAAKGVAAYMKSEDPLFVLEHSLPIDTQYYLEQQLAKPLLRIFEPILGEGRAEAVLLRGDHTRCKTVLTGKVGGLLAFAKRRNCCIGCRTVLSHQGAVCEFCQPRESELYQKEVSHLNALEERFSRLWTQCQRCQGSLHEDVICTSRDCPIFYMRKKVRKDLEDQEQLLRRFGPPGPEAW
co-precipitated amount after H2O2 treatment, percent of that without H2O2 [2]: 190%

B4: glyceraldehyde-3-phosphate dehydrogenase (GAPDH) (natural protein)
chain: not shown
co-precipitated amount after H2O2 treatment, percent of control [1]: 180%

B5: peroxiredoxin 2 (PRDX2) (natural protein, human (endogenous in HeLa), UniProt P32119 1-198, looked up)
chain: MASGNARIGKPAPDFKATAVVDGAFKEVKLSDYKGKYVVLFFYPLDFTFVCPTEIIAFSNRAEDFRKLGCEVLGVSVDSQFTHLAWINTPRKEGGLGPLNIPLLADVTRRLSEDYGVLKTDEGIAYRGLFIIDGKGVLRQITVNDLPVGRSVDEALRLVQAFQYTDEHGEVCPAGWKPGSDTIKPNVDDSKEYFSKHN
co-precipitated amount after H2O2 treatment, percent of control [2]: 139%
